Source: article PMC11033462

Assays:
[1] = target: PLAA p.Ile609Thr, Myc-tagged (human) (UniProt Q9Y263); assay: co-IP; Myc-PLAA overexpressed in HEK293T, captured from cleared lysate on Myc-beads (4°C, 2 h), eluate probed by western blot (anti-VCP, anti-SAKS1, anti-MYC); p97 band divided by the Myc-PLAA band
[2] = target: PLAA p.Leu795Met, Myc-tagged (human) (UniProt Q9Y263); assay: as above
[3] = target: PLAA p.Ile609Thr, Myc-tagged (human) (UniProt Q9Y263); assay: affinity purification with mass spectrometry; Myc-PLAA overexpressed in HEK293T, captured from cleared lysate on Myc-beads (20 mM HEPES pH 7.5, 100 mM NaCl, 0.2% n-dodecyl-β-D-maltoside, 4°C, 2 h), eluted with 10 M urea, LC-MS/MS; cut off 5-fold enrichment over untransfected controls; protein abundance as a ratio to PLAA
[4] = target: PLAA p.Leu795Met, Myc-tagged (human) (UniProt Q9Y263); assay: as above

percent decrease of p97 in the IP (ratio to PLAA) against WT PLAA [1]: 80%
percent decrease of p97 in the IP (ratio to PLAA) against WT PLAA [2]: 50%
percent decrease of p97 in the IP (ratio to PLAA) against WT PLAA [3]: 50%
percent decrease of p97 in the IP (ratio to PLAA) against WT PLAA [4]: 20%
Substance: VCP/p97 (from UniProt P55072 1-806) (natural protein)
